According to patent publication US20240018502:

Legend:
[1] = molecular target: complement protein C3 of cynomolgus monkey plasma
[2] = molecular target: T1, quenched fluorescence peptidic substrate containing SKGR/SL (P4-P2' of the PAR-2 activation cleavage site, Ser 33 to Leu 38)
T1 chain: SKGRSL

[3] = molecular target: human complement protein C3

| Protein | ED50 80% cynomolgus plasma (nM), C3 cleavage, C3 ELISA [1] [nM] | SKGR/SL kcat/Km [2] [M⁻¹ s⁻¹] | ED50 80% human plasma (60 min, nM), C3 cleavage [3] [nM] | ED50 of cleavage of human C3 [3] |
| --- | --- | --- | --- | --- |
| Wild-type MTSP-1 protease domain with C122S (protein) VVGGTDADEGEWPWQVSLHALGQGHICGASLISPNWLVSAAHCYIDDRGFRYSDPTQWTAFLGLHDQSQRSAPGVQERRLKRIISHPFFNDFTFDYDIALLELEKPAEYSSMVRPISLPDASHVFPAGKAIWVTGWGHTQYGGTGALILQKGEIRVINQTTCENLLPQQITPRMMCVGFLSGGVDSCQGDSGGPLSSVEADGRIFQAGVVSWGDGCAQRNKPGVYTRLPLFRDWIKENTGV | 2800 | 200000 | 3500 | compared to 11 nM for the wild-type protease domain of SEQ ID NO:4 |
| Q38H/I41S/D60bT/F60eS/Y60gW/D96K/F97D/ins97aA/T98P/F99L/C122S/G151H/Q175L/Q192D (protein) VVGGTDADEGEWPWQVSLHALGHGHSCGASLISPNWLVSAAHCYIDTRGSRWSDPTQWTAFLGLHDQSQRSAPGVQERRLKRIISHPFFNKDAPLDYDIALLELEKPAEYSSMVRPISLPDASHVFPAGKAIWVTGWGHTQYGGTHALILQKGEIRVINQTTCENLLPQLITPRMMCVGFLSGGVDSCDGDSGGPLSSVEADGRIFQAGVVSWGDGCAQRNKPGVYTRLPLFRDWIKENTGV | 85 | 4030 | 34 | – |
| I41R/F97T/Ins97aE/T98G/F99L/C122S/G151N/Q175L/Q192E (protein) VVGGTDADEGEWPWQVSLHALGQGHRCGASLISPNWLVSAAHCYIDDRGFRYSDPTQWTAFLGLHDQSQRSAPGVQERRLKRIISHPFFNDTEGLDYDIALLELEKPAEYSSMVRPISLPDASHVFPAGKAIWVTGWGHTQYGGTNALILQKGEIRVINQTTCENLLPQLITPRMMCVGFLSGGVDSCEGDSGGPLSSVEADGRIFQAGVVSWGDGCAQRNKPGVYTRLPLFRDWIKENTGV | 2200 | < 100 | 835 | – |
| Q38H/I41S/D60bT/F60eS/Y60gW/F97D/ins97aV/T98P/F99L/C122S/G151N/Q175L/Q192D (protein) VVGGTDADEGEWPWQVSLHALGHGHSCGASLISPNWLVSAAHCYIDTRGSRWSDPTQWTAFLGLHDQSQRSAPGVQERRLKRIISHPFFNDDVPLDYDIALLELEKPAEYSSMVRPISLPDASHVFPAGKAIWVTGWGHTQYGGTNALILQKGEIRVINQTTCENLLPQLITPRMMCVGFLSGGVDSCDGDSGGPLSSVEADGRIFQAGVVSWGDGCAQRNKPGVYTRLPLFRDWIKENTGV | 118 | 1730 | 41 | – |
| Q38H/I41S/D60bT/F60eS/Y60gW/F97D/ins97aV/T98P/F99L/C122S/G151H/Q175L/Q192E (protein) VVGGTDADEGEWPWQVSLHALGHGHSCGASLISPNWLVSAAHCYIDTRGSRWSDPTQWTAFLGLHDQSQRSAPGVQERRLKRIISHPFFNDDVPLDYDIALLELEKPAEYSSMVRPISLPDASHVFPAGKAIWVTGWGHTQYGGTHALILQKGEIRVINQTTCENLLPQLITPRMMCVGFLSGGVDSCEGDSGGPLSSVEADGRIFQAGVVSWGDGCAQRNKPGVYTRLPLFRDWIKENTGV | 76 | 959 | 50 | – |
| Q38H/I41A/D60bV/F60eR/Y60gW/F97T/ins97aE/T98G/F99L/C122S/G151H/Q175L/Q192D (protein) VVGGTDADEGEWPWQVSLHALGHGHACGASLISPNWLVSAAHCYIDVRGRRWSDPTQWTAFLGLHDQSQRSAPGVQERRLKRIISHPFFNDTEGLDYDIALLELEKPAEYSSMVRPISLPDASHVFPAGKAIWVTGWGHTQYGGTHALILQKGEIRVINQTTCENLLPQLITPRMMCVGFLSGGVDSCDGDSGGPLSSVEADGRIFQAGVVSWGDGCAQRNKPGVYTRLPLFRDWIKENTGV | 133 | 1360 | 32 | – |
| Q38H/I41A/D60bT/F60eK/Y60gW/F97T/ins97aE/T98G/F99L/C122S/G151H/Q175L/Q192D (protein) VVGGTDADEGEWPWQVSLHALGHGHACGASLISPNWLVSAAHCYIDTRGKRWSDPTQWTAFLGLHDQSQRSAPGVQERRLKRIISHPFFNDTEGLDYDIALLELEKPAEYSSMVRPISLPDASHVFPAGKAIWVTGWGHTQYGGTHALILQKGEIRVINQTTCENLLPQLITPRMMCVGFLSGGVDSCDGDSGGPLSSVEADGRIFQAGVVSWGDGCAQRNKPGVYTRLPLFRDWIKENTGV | 136 | 742 | 38 | – |
| Q38H/I41A/D60bV/F60eR/Y60gW/D96P/F97W/ins97aN/T98G/F99L/C122S/G151N/Q175L/Q192E (protein) VVGGTDADEGEWPWQVSLHALGHGHACGASLISPNWLVSAAHCYIDVRGRRWSDPTQWTAFLGLHDQSQRSAPGVQERRLKRIISHPFFNPWNGLDYDIALLELEKPAEYSSMVRPISLPDASHVFPAGKAIWVTGWGHTQYGGTNALILQKGEIRVINQTTCENLLPQLITPRMMCVGFLSGGVDSCEGDSGGPLSSVEADGRIFQAGVVSWGDGCAQRNKPGVYTRLPLFRDWIKENTGV | 73 | 1620 | 47 | – |
| Q38H/I41S/D60bT/F60eS/Y60gW/D96Y/F97E/ins97aV/T98G/F99L/C122S/G151H/Q175L/Q192D (protein) VVGGTDADEGEWPWQVSLHALGHGHSCGASLISPNWLVSAAHCYIDTRGSRWSDPTQWTAFLGLHDQSQRSAPGVQERRLKRIISHPFFNYEVGLDYDIALLELEKPAEYSSMVRPISLPDASHVFPAGKAIWVTGWGHTQYGGTHALILQKGEIRVINQTTCENLLPQLITPRMMCVGFLSGGVDSCDGDSGGPLSSVEADGRIFQAGVVSWGDGCAQRNKPGVYTRLPLFRDWIKENTGV | 133 | 865 | 38 | – |
| Q38H/I41A/D60bT/F60eK/Y60gW/F97T/ins97aE/T98G/F99L/C122S/G151N/Q175L/Q192D (protein) VVGGTDADEGEWPWQVSLHALGHGHACGASLISPNWLVSAAHCYIDTRGKRWSDPTQWTAFLGLHDQSQRSAPGVQERRLKRIISHPFFNDTEGLDYDIALLELEKPAEYSSMVRPISLPDASHVFPAGKAIWVTGWGHTQYGGTNALILQKGEIRVINQTTCENLLPQLITPRMMCVGFLSGGVDSCDGDSGGPLSSVEADGRIFQAGVVSWGDGCAQRNKPGVYTRLPLFRDWIKENTGV | 195 | 245 | 65 | – |
| Q38H/I41S/D60bT/F60eS/Y60gW/D96L/F97D/ins97aG/T98N/F99L/C122S/G151H/Q175L/Q192E (protein) VVGGTDADEGEWPWQVSLHALGHGHSCGASLISPNWLVSAAHCYIDTRGSRWSDPTQWTAFLGLHDQSQRSAPGVQERRLKRIISHPFFNLDGNLDYDIALLELEKPAEYSSMVRPISLPDASHVFPAGKAIWVTGWGHTQYGGTHALILQKGEIRVINQTTCENLLPQLITPRMMCVGFLSGGVDSCEGDSGGPLSSVEADGRIFQAGVVSWGDGCAQRNKPGVYTRLPLFRDWIKENTGV | 70 | 1300 | 39 | – |
| Q38H/I41A/D60bV/F60eR/Y60gW/D96I/F97Y/ins97aN/T98G/F99L/C122S/G151N/Q175L/Q192D (protein) VVGGTDADEGEWPWQVSLHALGHGHACGASLISPNWLVSAAHCYIDVRGRRWSDPTQWTAFLGLHDQSQRSAPGVQERRLKRIISHPFFNIYNGLDYDIALLELEKPAEYSSMVRPISLPDASHVFPAGKAIWVTGWGHTQYGGTNALILQKGEIRVINQTTCENLLPQLITPRMMCVGFLSGGVDSCDGDSGGPLSSVEADGRIFQAGVVSWGDGCAQRNKPGVYTRLPLFRDWIKENTGV | 37 | 2320 | 27 | – |
| Q38H/I41A/D60bV/F60eR/Y60gW/F97T/ins97aE/T98G/F99L/C122S/G151N/Q175L/Q192D (protein) VVGGTDADEGEWPWQVSLHALGHGHACGASLISPNWLVSAAHCYIDVRGRRWSDPTQWTAFLGLHDQSQRSAPGVQERRLKRIISHPFFNDTEGLDYDIALLELEKPAEYSSMVRPISLPDASHVFPAGKAIWVTGWGHTQYGGTNALILQKGEIRVINQTTCENLLPQLITPRMMCVGFLSGGVDSCDGDSGGPLSSVEADGRIFQAGVVSWGDGCAQRNKPGVYTRLPLFRDWIKENTGV | 101 | 925 | 52 | – |
| Q38H/I41S/D60bT/F60eS/Y60gW/F97D/ins97aV/T98P/F99L/C122S/G151H/Q175L/Q192D (protein) VVGGTDADEGEWPWQVSLHALGHGHSCGASLISPNWLVSAAHCYIDTRGSRWSDPTQWTAFLGLHDQSQRSAPGVQERRLKRIISHPFFNDDVPLDYDIALLELEKPAEYSSMVRPISLPDASHVFPAGKAIWVTGWGHTQYGGTHALILQKGEIRVINQTTCENLLPQLITPRMMCVGFLSGGVDSCDGDSGGPLSSVEADGRIFQAGVVSWGDGCAQRNKPGVYTRLPLFRDWIKENTGV | 152 | 1730 | 50 | – |
| Q38H/I41A/D60bV/F60eR/Y60gW/D96I/F97N/T98G/F99L/C122S/G151N/Q175L/Q192D (protein) VVGGTDADEGEWPWQVSLHALGHGHACGASLISPNWLVSAAHCYIDVRGRRWSDPTQWTAFLGLHDQSQRSAPGVQERRLKRIISHPFFNINGLDYDIALLELEKPAEYSSMVRPISLPDASHVFPAGKAIWVTGWGHTQYGGTNALILQKGEIRVINQTTCENLLPQLITPRMMCVGFLSGGVDSCDGDSGGPLSSVEADGRIFQAGVVSWGDGCAQRNKPGVYTRLPLFRDWIKENTGV | 58 | 3560 | 24 | – |
